This note sets out measurements from PMC6370633, “Mechanistic Insight Into the Interaction Between Helicobacter pylori Urease Subunit α and Its Molecular Chaperone Hsp60” (Frontiers in Microbiology, 2019).

The Kd is a measure of binding affinity in units of concentration. The low end stands for higher affinity, the high end for lower affinity. Usually koff stands for the first-order rate constant of dissociation. What is called kon is the second-order rate constant of association. High values mean fast association, low ones slow association.

Where a chain is given by its changes, count along the chain named.

T1: UreA-GST (UreA fused with GST tag on its C-terminus) (Helicobacter pylori 26695, UniProt P14916 1-238)
T1 construct: source: E. coli BL21(DE3), supernatant immobilized on glutathione Sepharose 4B beads; not shown: GST, C-terminal, kept
T1 sequence: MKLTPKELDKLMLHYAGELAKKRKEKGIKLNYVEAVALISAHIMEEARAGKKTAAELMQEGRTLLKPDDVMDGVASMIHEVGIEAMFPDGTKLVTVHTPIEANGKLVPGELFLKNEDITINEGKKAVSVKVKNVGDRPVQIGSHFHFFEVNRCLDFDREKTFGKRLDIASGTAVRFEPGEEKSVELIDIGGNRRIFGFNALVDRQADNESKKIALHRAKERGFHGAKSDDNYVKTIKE

B1: Helicobacter pylori Hsp60 with a 6 × His tag on its C terminus (natural protein, Helicobacter pylori 26695, UniProt P42383 1-546, looked up)
chain: MAKEIKFSDSARNLLFEGVRQLHDAVKVTMGPRGRNVLIQKSYGAPSITKDGVSVAKEIELSCPVANMGAQLVKEVASKTADAAGDGTTTATVLAYSIFKEGLRNITAGANPIEVKRGMDKAAEAIINELKKASKKVGGKEEITQVATISANSDHNIGKLIADAMEKVGKDGVITVEEAKGIEDELDVVEGMQFDRGYLSPYFVTNAEKMTAQLDNAYILLTDKKISSMKDILPLLEKTMKEGKPLLIIAEDIEGEALTTLVVNKLRGVLNIAAVKAPGFGDRRKEMLKDIAILTGGQVISEELGLSLENAEVEFLGKAGRIVIDKDNTTIVDGKGHSHDVKDRVAQIKTQIASTTSDYDKEKLQERLAKLSGGVAVIKVGAASEVEMKEKKDRVDDALSATKAAVEEGIVIGGGAALIRAAQKVHLNLHDDEKVGYEIIMRAIKAPLAQIAINAGYDGGVVVNEVEKHEGHFGFNASNGKYVDMFKEGIIDPLKVERIALQNAVSVSSLLLTTEATVHEIKEEKAAPAMPDMGGMGGMGGMGGMM
notes: also called recombinant Hsp60; source: E. coli BL21(DE3), purified (Ni-NTA, Sephadex G-75 gel filtration); not shown: His6, C-terminal, kept
B2: UreA-His (urease α subunit fused with a His tag on its C-terminus) (natural protein)
chain: T1 sequence
notes: also called wild-type UreA-His; urease subunit α; source: E. coli BL21(DE3), purified (Ni-NTA); not shown: His tag, C-terminal, kept
B3: UreA-His E25A (natural protein)
chain: T1 sequence with E25A
notes: source: E. coli BL21(DE3), purified as wild-type UreA-His; not shown: His tag, C-terminal, kept
B4: UreA-His K22A (natural protein)
chain: T1 sequence with K22A
notes: as for B3
B5: UreA-His K66A (natural protein)
chain: T1 sequence with K66A
notes: as for B3
B6: UreA-His Y15A (natural protein)
chain: T1 sequence with Y15A
notes: as for B3
B7: UreA-His K26A (natural protein)
chain: T1 sequence with K26A
notes: as for B3
B8: UreA-His R23A (natural protein)
chain: T1 sequence with R23A
notes: as for B3
B9: UreA-His D68A (natural protein)
chain: T1 sequence with D68A
notes: as for B3

Test [1] has as its target T1, UreA-GST (UreA fused with GST tag on …). The test can be described thus: pull-down; GST-fused proteins on glutathione Sepharose 4B beads (20 μl), incubated with 0.4 ml purified Hsp60 (1 mg/ml in 50 mM Tris-HCl, pH 8.0) at 4°C for 2 h; washed four times; Western blot (anti-His) and SDS-PAGE. The following applies: both partners purified. On the technique in general: A western blot detects proteins with antibodies after separation by electrophoresis.

In test [2] the target is B1. Briefly: SPR; BIAcore T100; Hsp60 immobilized on CM5 chip (~600 RU); UreA-His or mutants as analytes (0.36-2.19 μM); PBS pH 7.4, 30 μl/min, 25°C; kinetic analysis, global fit to 1:1 Langmuir model. The following applies: both partners purified. A general note: In SPR one partner is held on a chip, and binding of the other changes the refractive index at the surface.

In the case of B1, the “stoichiometry N” value in test [1] is ~1 Hsp60:UreA-GST.

B2: in test [2], binding was characterised by a dissociation constant (Kd) of 17 nM, the koff amounted to 0.000126 s⁻¹ and the kon came out at 7286 ± 15 M⁻¹ s⁻¹.

As for B3, in test [2], the Kd was 140 nM, the off-rate constant (koff) came to 0.00567 s⁻¹ and the association rate constant (kon) amounted to 40200 ± 1670 M⁻¹ s⁻¹.

B4: in test [2], binding was characterised by a dissociation constant (Kd) of 310 nM, the koff was determined as 0.00179 s⁻¹ and the kon stood at 5840 ± 146 M⁻¹ s⁻¹.

Regarding B5, in test [2], the Kd stood at 210 nM, the koff was found to be 0.00115 s⁻¹ and the kon was 5400 ± 214 M⁻¹ s⁻¹.

With B6, in test [2], the Kd stood at 150 nM, the dissociation rate constant (koff) was 0.00164 s⁻¹ and the on-rate constant (kon) is 11200 ± 287 M⁻¹ s⁻¹.

In test [2], B7 had a Kd of 460 nM, a koff of 0.0122 s⁻¹ and a kon of 26200 ± 250 M⁻¹ s⁻¹.

In test [2], B8 returned a Kd of 280 nM, an off-rate (koff) of 0.00144 s⁻¹ and a kon of 5070 ± 85 M⁻¹ s⁻¹.

B9: in test [2], binding was characterised by a dissociation constant (Kd) of 2000 nM, the koff came out at 0.00227 s⁻¹ and the kon was 1160 ± 41 M⁻¹ s⁻¹.
